Legend:
Test in all cases: IEDB peptide-MHC binding, purified MHC/competitive/radioactivity; filed as Kd, often an IC50 or EC50 that approximates it; ≥ and ≤ were set here for values at or beyond the usual limits of such assays
HLA-A*02:03 = biological target: HLA-A*02:03
HLA-A*02:06 = biological target: HLA-A*02:06
HLA-A*02:02 = biological target: HLA-A*02:02
HLA-A*03:01 = biological target: HLA-A*03:01
HLA-A*31:01 = biological target: HLA-A*31:01
HLA-A*33:01 = biological target: HLA-A*33:01
HLA-A*68:01 = biological target: HLA-A*68:01
HLA-A*11:01 = biological target: HLA-A*11:01
[1] = source organism: Vaccinia virus WR
[2] = source organism: SARS coronavirus Tor2
[3] = source organism: Dengue virus 2 Jamaica/1409/1983
[4] = source organism: Dengue virus 3 Martinique/1243/1999
[5] = source organism: Mammarenavirus guanaritoense
[6] = source organism: Mammarenavirus brazilense
[7] = source organism: Lassa virus Josiah
[8] = source organism: Mammarenavirus whitewaterense

Row | Sequence | Kd (HLA-A*02:03; [1]) | Kd (HLA-A*02:06; [1]) | Kd (HLA-A*02:02; [1]) | other results
1 | STQQNKLVI | 14400 nM | ≥ 77100 nM | ≥ 53000 nM | –
2 | EVTPEYIKDL | 2270 nM | 7670 nM | 1520 nM | –
3 | LLKCVSDSWL | 118 nM | 4730 nM | 75.5 nM | –
4 | KTPLYYLSGT | 3110 nM | 1420 nM | ≥ 21900 nM | –
5 | IALCKVTVPT | 2220 nM | 652 nM | 1950 nM | –
6 | TLIDFYLCFL | – | – | – | Kd (HLA-A*02:03; [2]): 3.57 nM; Kd (HLA-A*02:06; [2]): 3.01 nM; Kd (HLA-A*02:02; [2]): 0.0405 nM
7 | EVIERINLLV | 3330 nM | 300 nM | 19700 nM | –
8 | HVLLPFYETL | 213 nM | 115 nM | 29.4 nM | –
9 | MISTYPGNT | 229 nM | ≥ 25700 nM | 5490 nM | –
10 | RALIFILLTA | – | – | – | Kd (HLA-A*02:06; [3]): 140 nM
11 | FVVTTDISEM | – | – | – | Kd (HLA-A*02:06; [4]): 297 nM
12 | DVFRPLFDFV | 2570 nM | 232 nM | 1020 nM | –
13 | TLYAVATTIL | – | – | – | Kd (HLA-A*02:03; source organism: Dengue virus 4 Philippines/H241/1956): 101 nM
14 | LMLHNPTSET | 4480 nM | 11100 nM | ≥ 39300 nM | –
15 | LVQYRILPMI | 1200 nM | 712 nM | 12500 nM | –
16 | LTPFEKEFT | ≥ 20900 nM | ≥ 77100 nM | 16800 nM | –
17 | IICEDAMYYA | 108 nM | 8.78 nM | 24 nM | –
18 | DVGCLLTDTI | 15600 nM | 9990 nM | 10700 nM | –
19 | AITLVVISVI | 786 nM | 2000 nM | 406 nM | –
20 | DAIKSNNHLT | 17900 nM | ≥ 69800 nM | ≥ 27400 nM | –
21 | AVKFAEESYT | 1470 nM | 2270 nM | 1760 nM | –
22 | LTSNCTRTT | ≥ 29600 nM | ≥ 40400 nM | ≥ 77800 nM | –
23 | ASAWTLYAV | – | – | – | Kd (HLA-A*02:06; [3]): 8.11 nM
24 | YCNYTRFWYI | – | – | – | Kd (HLA-A*02:03; [5]): 4340 nM; Kd (HLA-A*02:06; [5]): 81.4 nM; Kd (HLA-A*02:02; [5]): 1050 nM
25 | KIKQTGINNV | 3.12 nM | 2550 nM | 237 nM | –
26 | LRYFIMAYV | – | – | – | Kd (HLA-A*02:03; [6]): 395 nM; Kd (HLA-A*02:06; [6]): ≥ 20100 nM; Kd (HLA-A*02:02; [6]): 213 nM

Row | Sequence | Kd (HLA-A*02:03; [1]) | Kd (HLA-A*02:06; [1]) | Kd (HLA-A*02:02; [1]) | other results
27 | EQYTCNKPYT | 3010 nM | ≥ 45700 nM | 14000 nM | –
28 | QLVFNSISA | 1560 nM | 3780 nM | 4800 nM | –
29 | ITDNGPMPYM | 1180 nM | 303 nM | 828 nM | –
30 | VAEHRFENM | 7160 nM | ≥ 47900 nM | 7130 nM | –
31 | FCNLSDAHK | – | – | – | Kd (HLA-A*03:01; [7]): ≥ 36200 nM; Kd (HLA-A*31:01; [7]): ≥ 77900 nM; Kd (HLA-A*33:01; [7]): 4330 nM; Kd (HLA-A*68:01; [7]): 1050 nM; Kd (HLA-A*11:01; [7]): ≥ 51000 nM
32 | RIYCSLFKNV | 29.6 nM | 7.1 nM | 913 nM | –
33 | TVEFDRDKVV | 1600 nM | ≥ 30800 nM | 16200 nM | –
34 | TFVNFNSVK | – | – | – | Kd (HLA-A*03:01; [1]): 784 nM; Kd (HLA-A*31:01; [1]): 103 nM; Kd (HLA-A*33:01; [1]): 197 nM; Kd (HLA-A*68:01; [1]): 12.5 nM; Kd (HLA-A*11:01; [1]): 21.4 nM
35 | CLDAGINYV | – | – | – | Kd (HLA-A*02:03; [2]): 6.43 nM; Kd (HLA-A*02:06; [2]): 1.56 nM; Kd (HLA-A*02:02; [2]): 0.569 nM
36 | DLLLPSTDV | 3900 nM | 1060 nM | 15100 nM | –
37 | VVMAYVGIK | – | – | – | Kd (HLA-A*03:01; [1]): 18.6 nM; Kd (HLA-A*31:01; [1]): 2460 nM; Kd (HLA-A*33:01; [1]): ≥ 23200 nM; Kd (HLA-A*68:01; [1]): 19 nM; Kd (HLA-A*11:01; [1]): 1.24 nM
38 | SLEATFIDV | 80.4 nM | 10.3 nM | 34.9 nM | –
39 | NIDSIMSMM | 874 nM | 4720 nM | 25 nM | –
40 | ASLPYGANK | – | – | – | Kd (HLA-A*03:01; [2]): 177 nM; Kd (HLA-A*31:01; [2]): 514 nM; Kd (HLA-A*33:01; [2]): ≥ 52200 nM; Kd (HLA-A*68:01; [2]): 16500 nM; Kd (HLA-A*11:01; [2]): 111 nM
41 | AIEPSGNNY | – | – | – | Kd (HLA-A*03:01; [1]): ≥ 59600 nM; Kd (HLA-A*31:01; [1]): ≥ 77900 nM; Kd (HLA-A*33:01; [1]): ≥ 77700 nM; Kd (HLA-A*68:01; [1]): ≥ 77700 nM; Kd (HLA-A*11:01; [1]): 5790 nM
42 | VCFWSTLFYV | – | – | – | Kd (HLA-A*02:03; [8]): 7010 nM; Kd (HLA-A*02:06; [8]): 1130 nM; Kd (HLA-A*02:02; [8]): 348 nM
43 | LISLINSLV | 0.478 nM | 72.4 nM | 0.478 nM | –
44 | TLATGPITTL | – | – | – | Kd (HLA-A*02:03; [4]): 12 nM
45 | FLLRGPFEAS | – | – | – | Kd (HLA-A*02:03; [8]): 83.5 nM; Kd (HLA-A*02:06; [8]): 70.3 nM; Kd (HLA-A*02:02; [8]): 27.1 nM
46 | SLVKPTVYV | – | – | – | Kd (HLA-A*02:03; [2]): 37.2 nM; Kd (HLA-A*02:06; [2]): 473 nM; Kd (HLA-A*02:02; [2]): 108 nM
47 | WALRHPGFTV | – | – | – | Kd (HLA-A*02:06; source organism: Dengue virus 1 Brazil/97-11/1997): 83.7 nM
48 | DTSPTKRCRL | ≥ 37100 nM | ≥ 44700 nM | 12200 nM | –
49 | NFIPIIYSK | – | – | – | Kd (HLA-A*03:01; [1]): 8660 nM; Kd (HLA-A*31:01; [1]): 13.9 nM; Kd (HLA-A*33:01; [1]): 25.6 nM; Kd (HLA-A*68:01; [1]): 76.9 nM; Kd (HLA-A*11:01; [1]): 212 nM
50 | TMHANYIFWR | – | – | – | Kd (HLA-A*03:01; [2]): 1260 nM; Kd (HLA-A*31:01; [2]): 11.3 nM; Kd (HLA-A*33:01; [2]): 121 nM; Kd (HLA-A*68:01; [2]): 35.5 nM; Kd (HLA-A*11:01; [2]): 125 nM
51 | GVLPEETNI | ≥ 20400 nM | 573 nM | 17300 nM | –

Reference: the Immune Epitope Database (IEDB)
